Measurements: US20150004129A1

How the values were obtained:
[1] = target: Flag-CD40L (AA 116 to 261) (human) (UniProt P29965); experiment: competitive ELISA; receptor/Fc coated, sCD40L at constant concentration, competitor titrated with 1 ug/ml protein A
Flag-TRAIL = Flag-TRAIL (UniProt P50591); experiment: BIAcore; 7 ul of 2.5 ug/ml Flag-TRAIL over immobilised M2 antibody
Flag-FasL (soluble FasL) [2] = target: Flag-FasL (soluble FasL) (UniProt P48023); experiment: BIAcore; 7 ul of 2.5 ug/ml Flag-FasL over immobilised M2 antibody
Flag-FasL (soluble FasL) [3] = target: Flag-FasL (soluble FasL) (UniProt P48023); experiment: BIAcore; Flag-FasL captured on immobilised M2 anti-Flag antibody, receptor fusion protein injected
Flag-FasL (soluble FasL) [4] = target: Flag-FasL (soluble FasL) (UniProt P48023); experiment: cell-based or functional assay
Flag-FasL (soluble FasL) [5] = target: Flag-FasL (soluble FasL) (UniProt P48023); experiment: BIAcore; Flag-FasL captured on immobilised M2 anti-Flag antibody
[6] = target: Flag-CD40L (AA 116 to 261) (human) (UniProt P29965); experiment: competitive ELISA; receptor/Fc coated, sCD40L at constant concentration, competitor titrated

Chain of UniProt P48023 (P48023 other isoform, or with tags, fused parts or gaps): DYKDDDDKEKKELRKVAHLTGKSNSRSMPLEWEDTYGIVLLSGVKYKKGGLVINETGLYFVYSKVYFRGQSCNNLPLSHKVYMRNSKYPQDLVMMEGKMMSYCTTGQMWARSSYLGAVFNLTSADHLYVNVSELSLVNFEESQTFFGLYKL
Chain of UniProt P29965 (P29965 other isoform, or with tags, fused parts or gaps): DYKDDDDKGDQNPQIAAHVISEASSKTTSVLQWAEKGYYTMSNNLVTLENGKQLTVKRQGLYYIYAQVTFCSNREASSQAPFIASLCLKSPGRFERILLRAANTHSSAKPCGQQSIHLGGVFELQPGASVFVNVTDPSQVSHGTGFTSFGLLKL

Substance: CD40:Fc cross-linked with protein A (from UniProt P25942 1-193)
- fold increase in the affinity against CD40:Fc [1]: 8 fold

Substance: M2 anti-Flag monoclonal antibody
- units bound (BIAcore) (Flag-TRAIL): 100 to 150 units
- units bound (BIAcore) (Flag-FasL (soluble FasL) [2]): 100 to 150 units

Substance: Fas:COMP fusion protein (from UniProt P25445 26-170) (receptor)
- Kd (Flag-FasL (soluble FasL) [3]): 770 pM
- inhibitory activity against sFasL-mediated lysis, fold against Fas:Fc (Flag-FasL (soluble FasL) [4]): 10 to 20 fold
- fold lower dissociation constant than Fas:Fc (Flag-FasL (soluble FasL) [5]): 8 to 9 fold

Substance: CD40:COMP fusion protein (from UniProt P25942 1-193) (receptor)
- fold increase in the affinity against CD40:Fc [6]: 30 fold

Substance: Fas:Fc fusion protein (from UniProt P25445 26-170)
- protection of A20 cells exposed to a lethal dose of soluble FasL (cytotoxicity test) (Flag-FasL (soluble FasL) [4]): < 50%
